The values below are quoted from earlier work in article PMC11273449.

Data set [1] deals with Spike S1 subunit, BA.1 (SARS-CoV-2 BA.1 (Omicron)) (UniProt P0DTC2). Briefly: cited. As to conditions: 5' hexynyl.
For data set [2], the system named is Influenza A virion (Influenza A/PR/8/34). Briefly: cited. Conditions: 5' hexynyl.

Broadly, the Kd is the free concentration of one partner at which half of the binding sites on the other are occupied at equilibrium, for simple one-to-one binding. Take “TTTTTACGCCAAGGTGTCACTCCGTAGGGTTTGGCTCCGGGCCTGGCGTCGGTCGCGAAGCATCTCCTTGGCGT [Aptamer 4 (particle)]”: the Kd in data set [1] was 5 nM.

For the sequence “TTTTTGGCAGGAAGACAAACAGCCAGCGTGACAGCGACGCGTAGGGACCGGCATCCGCGGGTGGTCTGTGGTGCTGT [Influenza A aptamer (particle)]”, the Kd in data set [2] was 55 nM.
